Assay results: doi:10.1101/199034 (bioRxiv, 2017)

What was measured:
[1] = biological target: human KATPem (human SUR1-human Kir6.2 fusion construct) (human); assay: cryo-EM structure
cryo-EM structure = biological target: the molecule itself; assay: cryo-EM structure

stoichiometry N [1] | Molecule | stoichiometry N (cryo-EM structure)
4 | human KATPem (human SUR1-human Kir6.2 fusion construct) (complex) | 
 | human Kir6.2 (natural protein, UniProt Q14654 1-390, looked up) MLSRKGIIPEEYVLTRLAEDPAKPRYRARQRRARFVSKKGNCNVAHKNIREQGRFLQDVFTTLVDLKWPHTLLIFTMSFLCSWLLFAMAWWLIAFAHGDLAPSEGTAEPCVTSIHSFSSAFLFSIEVQVTIGFGGRMVTEECPLAILILIVQNIVGLMINAIMLGCIFMKTAQAHRRAETLIFSKHAVIALRHGRLCFMLRVGDLRKSMIISATIHMQVVRKTTSPEGEVVPLHQVDIPMENGVGGNSIFLVAPLIIYHVIDANSPLYDLAPSDLHHHQDLEIIVILEGVVETTGITTQARTSYLADEILWGQRFVPIVAEEDGRYSVDYSKFGNTVKVPTPLCTARQLDEDHSLLEALTLASARGPLRKRSVPMAKAKPKFSISPDSLS | 4
